The source of these data is PMC11022072 (2024).

What all share (assay): BLI
Assay [1] addresses LbpB C-lobe ΔCaHD.
The target in assay [2] is FL LbpB ΔCaHD.
For assay [3], the target named is LbpB C-lobe.

B1: bovine lactoferrin (Lf) (natural protein)
chain: APRKNVRWCTISQPEWFKCRRWQWRMKKLGAPSITCVRRAFALECIRAIAEKKADAVTLDGGMVFEAGRDPYKLRPVAAEIYGTKESPQTHYYAVAVVKKGSNFQLDQLQGRKSCHTGLGRSAGWIIPMGILRPYLSWTESLEPLQGAVAKFFSASCVPCIDRQAYPNLCQLCKGEGENQCACSSREPYFGYSGAFKCLQDGAGDVAFVKETTVFENLPEKADRDQYELLCLNNSRAPVDAFKECHLAQVPSHAVVARSVDGKEDLIWKLLSKAQEKFGKNKSRSFQLFGSPPGQRDLLFKDSALGFLRIPSKVDSALYLGSRYLTTLKNLRETAEEVKARYTRVVWCAVGPEEQKKCQQWSQQSGQNVTCATASTTDDCIVLVLKGEADALNLDGGYIYTAGKCGLVPVLAENRKSSKHSSLDCVLRPTEGYLAVAVVKKANEGLTWNSLKDKKSCHTAVDRTAGWNIPMGLIVNQTGSCAFDEFFSQSCAPGADPKSRLCALCAGDDQGLDKCVPNSKEKYYGYTGAFRCLAEDVGDVAFVKNDTVWENTNGESTADWAKNLNREDFRLLCLDGTRKPVTEAQSCHLAVAPNHAVVSRSDRAAHVKQVLLHQQALFGKNGKNCPDKFCLFKSETKNLLFNDNTECLAKLGGRPTYEEYLGTEYVTAIANLKKCSTSPLLEACAFLTR
Turning to B1, the figures for the dissociation constant (Kd) in assay [1], in assay [2] and in assay [3] were 2.9 µM, 1.28 µM and 0.2 µM, respectively.
